Measurements reported in paper PMC10244618.
“And” between values parts separate entries of the source, which are not always exact repeats. Equal values may be shown once.

B1: NF2 (merlin) isoform 7, human, full length (507 aa, lacks exons 2-3 = isoform-1 residues 39-121; exon-16 C-terminus), P35240-4 (parent)
chain: MAGAIASRMSFSSLKRKQPKTFTVRIVTMDAEMEFNCEVKKQILDEKIYCPPEASVLLASYAVQAKYGDYDPSVHKRGFLAQEELLPKRVINLYQMTPEMWEERITAWYAEHRGRARDEAEMEYLKIAQDLEMYGVNYFAIRNKKGTELLLGVDALGLHIYDPENRLTPKISFPWNEIRNISYSDKEFTIKPLDKKIDVFKFNSSKLRVNKLILQLCIGNHDLFMRRRKADSLEVQQMKAQAREEKARKQMERQRLAREKQMREEAERTRDELERRLLQMKEEATMANEALMRSEETADLLAEKAQITEEEAKLLAQKAAEAEQEMQRIKATAIRTEEEKRLMEQKVLEAEVLALKMAEESERRAKEADQLKQDLQEAREAERRAKQKLLEIATKPTYPPMNPIPAPLPPDIPSFNLIGDSLSFDFKDTDMKRLSMEIEKEKVEYMEKSKHLQEQLNELKTEIEALKLKERETALDILHNENSDRGGSSKHNTIKKPQAQGRRPICI

Variants of: B1
Assay: reverse yeast two-hybrid deep mutational scan (rY2H-seq): NF2 isoform 7 mutant library as bait mated with wild-type prey strains; selection on medium lacking adenine for non-interacting pairs; NextSeq paired-end sequencing; enrichment vs …
Conditions: with KDM1A (lysine-specific histone demethylase 1A; the table's label AOF2 is a gene synonym of KDM1A), O60341; yeast diploids after mating (RBait_S3 x RPrey_S3), 30 °C, selection for reporter genes on NB agar; human tyrosine kinase ABL2 co-expressed as the active kinase …; HIGHER = WEAKER BINDING (the opposite of display enrichments): higher = stronger loss of interaction: reverse Y2H selects yeast in which bait and prey do NOT interact (growth without adenine), so a …; hits-only table; scale: rY2H score; numbering: uniprot, sequence starts at 1

enrichment | Variant
1.73 | N402E
8.79 | R341A
1.79 | L355P
2.32 | E391R
1.48 | R253Q
1.97 | E309K
2.21 | R328L
2 | A365K
3.45 | A54V
2.69 | A316E
3.5 | L57A
1.91 | A140G
1.99 | M446I
1.81 | I329A
1.61 | A59V
3.58 | S55F
1.39 | H159A
1.87 | D428N
2.18 | N143M
6.45 | I412H
1.47 | E245Y

enrichment | Variant
3.89 | F200S
4.28 and 3.15 | R364A
1.9 | R89K
2.28 | D198G
3.84 and 4.07 | I160K
4.05 | P163E
2.61 | S421K
1.84 | R166G
2.21 | N137R
1.42 | Q500K
1.42 | I105C
2 | K356A
1.91 | K356E
1.59 | E121A
1.63 | M96I
1.61 | M96V
1.93 | A155C
1.47 | P396S
6.87 | Q64P
2.38 | Q64K
1.77 and 2.01 | P407L

enrichment | Variant
2.33 | P407A
2.24 | H221Y
1.5 | E444K
1.67 and 1.4 | E311K
2.4 and 1.53 | D411A
4.86 | G419E
1.9 | R363L
4.78 | T397I
11.8 | I127E
1.55 | R243K
22.9 | K126E
2.41 | E349P
1.5 | I418A
2.43 | Y398K
3.71 | R335L
1.9 | R335S
2.04 | A333E
1.79 | Q306H
1.9 | A65V
1.62 and 1.74 | E148A
1.99 and 1.77 | M401K

enrichment | Variant
1.62 | M401E
1.4 | K304P
3.58 | K304A
2.15 | D162Y
7.96 | I404D
3.26 | E321L
1.4 | T394A
1.51 | D299E
1.54 | D130A
2 | L390E
2.84 | T308I
2.43 | S489L
1.85 | E38K
1.8 | V56L
5.37 | M262D
1.89 | M286A
2 | L301A
21.9 | M133E
43 | M225K
1.58 | Q82D
2.59 | K330L

Same assay, conditions: with PIK3R3 (phosphatidylinositol 3-kinase regulatory subunit gamma), Q92569; yeast diploids after mating (RBait_S3 x RPrey_S3), 30 °C, selection for reporter genes on NB agar; human tyrosine kinase ABL2 co-expressed as the active kinase …; HIGHER = WEAKER BINDING (the opposite of display enrichments): higher = stronger loss of interaction: reverse Y2H selects yeast in which bait and prey do NOT interact (growth without adenine), so a …; hits-only table; scale: rY2H score; numbering: uniprot, sequence starts at 1

enrichment | Variant
1.42 | N402E
1.57 | R253Q
3.02 | E309K
2.58 | A365K
2.22 and 3.1 | A316E
1.64 | I329A
2.52 | A59V
2 | A312K
2.87 | R364A
1.44 | R166G
2.63 | N137R
1.8 and 1.98 | A155C
2.17 | M401K
2.14 | M401E
3.49 | E321L
2.14 | T394A
3.03 | S361P
15.3 | R228G
1.92 | V56L
15.7 | M262D

Same assay, conditions: with NF2 C-terminal domain (wild type; homomeric NF2-NF2 interaction), P35240; yeast diploids after mating (RBait_S3 x RPrey_S3), 30 °C, selection for reporter genes on NB agar; human ABL2 co-expressed as the kinase-dead K35M mutant …; HIGHER = WEAKER BINDING (the opposite of display enrichments): higher = stronger loss of interaction: reverse Y2H selects yeast in which bait and prey do NOT interact (growth without adenine), so a …; hits-only table; partner unresolved; scale: rY2H score; numbering: uniprot, sequence starts at 1

enrichment | Variant
10 | A406L
1.83 | E309K
2.02 | L156K
4.21 | D118K
1.57 | L167K
1.75 | A140G
1.99 | N482E
1.62 | L315R
2.96 | S73P
2.34 | A312K
1.7 | A499G
2.23 | R248L
2.04 | H159A
1.65 and 1.37 | N143M
1.58 | E245A
1.51 | E310L
3.98 | P399S
1.71 and 3.21 | I160K
1.61 | I160A
2.31 | P163E
2.24 | S421K

enrichment | Variant
1.53 | P413K
1.42 | N137Q
1.42 and 1.58 | I105C
2.49 | K260A
2.37 | A358E
3.8 | A358K
3.06 | L353K
1.84 | N288A
5.81 | Q64M
2.27 | Q236A
1.92 | D476G
2.51 | H491L
3.15 | D411L
3.9 | P19E
1.84 | E132L
1.89 | A302K
2.55 | R363L
2.32 | L417T
1.7 | D69L
4.46 | H479A
1.8 and 2.78 | K126L

enrichment | Variant
1.62 | E321A
1.5 | R113G
3.98 | T394R
2.16 | L291E
27.7 | F424E
1.37 | L408C
2.94 | M357D
1.97 and 1.82 | M357A
2.55 and 1.66 | A298E
2.15 | S489K
6.2 | Y61A
1.84 | Y61K
6.41 | M262D
1.81 | L301A
3.26 | E380K
18.2 | E83K
2.45 | M133E
2.04 | V27L
1.55 | L158G
1.7 | Q261E
2.15 | A378L

Same assay, conditions: with KDM1A (lysine-specific histone demethylase 1A; the table's label AOF2 is a gene synonym of KDM1A), O60341; yeast diploids after mating (RBait_S3 x RPrey_S3), 30 °C, selection for reporter genes on NB agar; human ABL2 co-expressed as the kinase-dead K35M mutant …; HIGHER = WEAKER BINDING (the opposite of display enrichments): higher = stronger loss of interaction: reverse Y2H selects yeast in which bait and prey do NOT interact (growth without adenine), so a …; hits-only table; scale: rY2H score; numbering: uniprot, sequence starts at 1

enrichment | Variant
2.08 | Q250L
3.64 and 8.74 | R25E
1.52 | G486D
5.71 | D71K
4.11 | L315S
2.33 | L315P
1.77 | T168P
3.21 | A312L
1.52 | R248C
2.21 | E362L
1.77 | R166G
3.02 | Y67A
1.69 | N492E
3.38 | N457S
2.39 | D476E
7.23 | M357D
2 | S361P
8.73 | R228G
5.07 | D271K
